# Source: PMC9190012, “Heparin activation of protein Z-dependent protease inhibitor (ZPI) allosterically blocks protein Z activation through an extended heparin-binding site” (The Journal of Biological Chemistry, 2022)
# Changes are numbered by the printed parent chain. Numbers in names are those of the source.
# B1: K125A/R128A: ZPI mutant of helix D residues (protein, UniProt Q9UK55 22-444, looked up, variant K125A R128A)
# Protein Z-dependent protease …: LAPSPQSPETPAPQNQTSRVVQAPKEEEEDEQEASEEKASEEEKAWLMASRQQLAKETSNFGFSLLRKISMRHDGNMVFSPFGMSLAMTGLMLGATGPTETQIKRGLHLQALKPTKPGLLPSLFAGLAETLSRNLELGLTQGSFAFIHKDFDVKETFFNLSKRYFDTECVPMNFRNASQAKRLMNHYINKETRGKIPKLFDEINPETKLILVDYILFKGKWLTPFDPVFTEVDTFHLDKYKTIKVPMMYGAGKFASTFDKNFRCHVLKLPYQGNATMLVVLMEKMGDHLALEDYLTTDLVETWLRNMKTRNMEVFFPKFKLDQKYEMHELLRQMGIRRIFSPFADLSELSATGRNLQVSRVLQRTVIEVDERGTEAVAGILSEITAYSMPPVIKVDRPFHFMIYEETSGMLLFLGRVVNPTLL
# B2: K260A/R263A/R305A/K308A/R310A: ZPI helix H site quintuple mutant (protein, UniProt Q9UK55 22-444, looked up, variant K260A R263A R305A K308A R310A)
# Protein Z-dependent protease …: B1 Protein Z-dependent protease … with A125K, A128R, K260A, R263A, R305A, K308A, R310A
# B3: K253A/K260A/R263A/R305A/K308A/R310A: ZPI helix H site sextuple mutant (protein, UniProt Q9UK55 22-444, looked up, variant K253A K260A R263A R305A K308A R310A)
# Protein Z-dependent protease …: B1 Protein Z-dependent protease … with A125K, A128R, K253A, K260A, R263A, R305A, K308A, R310A
# B4: K284A/R310A: ZPI helix H site double mutant (protein, UniProt Q9UK55 22-444, looked up, variant K284A R310A)
# Protein Z-dependent protease …: B1 Protein Z-dependent protease … with A125K, A128R, K284A, R310A
# B5: K104A/R105A/K113A/K116A/K125A/R128A: ZPI mutant of the six basic residues in the helix C/D site (protein, UniProt Q9UK55 22-444, looked up, variant K104A R105A K113A K116A K125A R128A)
# Protein Z-dependent protease …: B1 Protein Z-dependent protease … with K104A, R105A, K113A, K116A
# B6: K284A: ZPI helix H site mutant (protein, UniProt Q9UK55 22-444, looked up, variant K284A)
# Protein Z-dependent protease …: B1 Protein Z-dependent protease … with A125K, A128R, K284A
# Target: T1, FXa (Homo sapiens, UniProt P00742)
# T1 construct: purchased Enzyme Research Laboratories
# T1 sequence (P00742 235-488 limits assumed): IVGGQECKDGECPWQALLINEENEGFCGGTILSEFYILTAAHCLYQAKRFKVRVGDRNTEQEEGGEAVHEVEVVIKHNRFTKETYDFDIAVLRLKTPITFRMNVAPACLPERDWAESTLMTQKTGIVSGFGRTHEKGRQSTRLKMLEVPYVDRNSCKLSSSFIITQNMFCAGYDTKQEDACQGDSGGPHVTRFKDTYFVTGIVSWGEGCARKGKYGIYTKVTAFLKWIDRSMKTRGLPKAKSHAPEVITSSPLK
# T1 sequence (P00742 41-179 limits assumed): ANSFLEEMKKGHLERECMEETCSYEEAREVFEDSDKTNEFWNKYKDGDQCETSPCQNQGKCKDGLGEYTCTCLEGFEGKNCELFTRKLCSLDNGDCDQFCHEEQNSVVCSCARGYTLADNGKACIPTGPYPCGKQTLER
# Assay: Unaccelerated ZPI–FXa reactions: kinetics and stoichiometry of inhibition
# Format: biochemical
# Settings: not given
# Procedure: (§1) Apparent second-order rate constants for unaccelerated and H50-accelerated ZPI–FXa reactions were measured in the absence and presence of the optimal H50 concentration under pseudo–first-order conditions by analyzing full ZPI–FXa reaction progress curves over the ZPI concentration range of 10 to 900 nM with ∼0.5 nM FXa. Full reaction progress curves were also measured for ZPI–FXa reactions in the presence of PZ equimolar with ZPI, 25 μM lipid, and 5 mM CaCl2, as a function of the ZPI concentration in the range of 10 to 40 nM. Identical reaction mixtures were quenched at varying reaction times with substrate, and the time course of protease inactivation was measured from the decrease in initial rates of substrate hydrolysis. The first-order rate of decrease in protease activity with time was computer fit by a single exponential decay function with a nonzero end point and kobs obtained from the fitted exponential decay constant. Apparent second-order association rate constants (ka,app) were obtained from the slopes of linear plots of kobs versus the ZPI concentration according to the equation, kobs=kd+ka,app × [ZPI]0
# (§2) In which kd represents the rate constant for ZPI–FXa complex dissociation and [ZPI]o is the total ZPI concentration. kd was fixed at the experimentally determined value of 10^−4 s^−1 for WT and ZPI mutants as described ([18]).
# (§3) Fixed concentrations of FXa (50–100 nM FXa) were reacted with increasing concentrations of ZPI, ranging from a approximately threefold to sevenfold molar excess, in the absence of cofactors or in the presence of either 1 μM H50 or PZ equimolar with ZPI, 25 μM lipid, and 5 mM CaCl2, in kinetics buffer at 25 °C in reaction volumes of 50 μl. After allowing sufficient time to reach a reaction end point, based on measured second-order associate rate constants (∼5–30 min), remaining proteolytic activity was measured by reacting an aliquot (5–20 μl) of the reaction mixtures with 1 ml of 100 μM Spectrozyme fXa (American Diagnostica) containing 50 μg/ml Polybrene and 5 mM EDTA and monitoring the rate of absorbance change at 405 nm. The apparent SI was determined from the fitted abscissa intercept of a linear plot of residual protease activity against the molar ratio of inhibitor to protease ([18]). Because the ZPI–PZ complex dissociates to a small extent over the reaction time, apparent SIs depend on the time of incubation. To correct for such complex dissociation, apparent SIs were multiplied by the factor, exp (−kd × t), where kd is the measured complex dissociation rate constant of 10^−4 s^−1 and t the fixed reaction time. Simulations verified the validity of this correction for small extents of dissociation. Reported SIs are average values of at least two independent measurements at different reaction times.
SI [moles ZPI/mole FXa],"ka,app × SI","ka,app × SI relative to WT",Molecule
1.7 ± 0.1,6.3 ± 0.3 × 10^3 M^−1 s^−1,(0.39),B1
2.9 ± 0.3,7.5 ± 0.9 × 10^3 M^−1 s^−1,(0.47),B2
3.2 ± 0.1,2.9 ± 0.2 × 10^3 M^−1 s^−1,(0.18),B3
1.9 ± 0.2,6.3 ± 1.3 × 10^3 M^−1 s^−1,(0.39),B4
3.4 ± 0.4,9.4 ± 1.6 × 10^3 M^−1 s^−1,(0.59),B5
2.3 ± 0.2,1.2 ± 0.2 × 10^4 M^−1 s^−1,(0.75),B6

# Same assay, conditions: absence of PZ, 2.5 mM CaCl2, pH 7.4, 25 °C
row,"ka,app",Molecule
1,3.7 ± 0.1 × 10^3 M^−1 s^−1,B1
2,2.6 ± 0.1 × 10^3 M^−1 s^−1,B2
3,9.2 ± 0.6 × 10^2 M^−1 s^−1,B3
4,3.3 ± 0.3 × 10^3 M^−1 s^−1,B4
5,2.8 ± 0.1 × 10^3 M^−1 s^−1,B5
6,5.0 ± 0.3 × 10^3 M^−1 s^−1,B6

# Target: T1, FXa
# Assay: PZ-accelerated ZPI–FXa reactions: kinetics and stoichiometry of inhibition
# Format: biochemical
# Settings: PZ-accelerated
# Procedure: as §1, §2, §3
SI [moles ZPI/mole FXa],"ka,app × SI","ka,app × SI relative to WT",Molecule
5.6 ± 0.1,2.9 ± 0.2 × 10^7 M^−1 s^−1,(0.66),B1
4.5 ± 0.2,1.8 ± 0.1 × 10^7 M^−1 s^−1,(0.41),B2
7.4 ± 0.3,2.5 ± 0.2 × 10^7 M^−1 s^−1,(0.57),B3
3.3 ± 0.1,2.1 ± 0.2 × 10^7 M^−1 s^−1,(0.48),B4
7.7 ± 0.1,8.5 ± 0.9 × 10^6 M^−1 s^−1,(0.19),B5
3.3 ± 0.1,2.0 ± 0.1 × 10^7 M^−1 s^−1,(0.45),B6

# Same assay, conditions: equimolar PZ, 25 μM phospholipid, 5 mM CaCl2, pH 7.4, 25 °C
row,"ka,app",Molecule
1,5.2 ± 0.2 × 10^6 M^−1 s^−1,B1
2,3.9 ± 0.1 × 10^6 M^−1 s^−1,B2
3,3.4 ± 0.1 × 10^6 M^−1 s^−1,B3
4,6.4 ± 0.4 × 10^6 M^−1 s^−1,B4
5,1.1 ± 0.1 × 10^6 M^−1 s^−1,B5
6,6.2 ± 0.1 × 10^6 M^−1 s^−1,B6

# Same assay, conditions: ratio of PZ-accelerated to unaccelerated ka,app × SI
row,PZ enhancement,Molecule
1,4603,B1
2,2400,B2
3,8620,B3
4,3317,B4
5,904,B5
6,1733,B6

# Target: T1, FXa
# Assay: H50 heparin-accelerated ZPI–FXa reactions: kinetics and stoichiometry of inhibition
# Format: biochemical
# Settings: 1 μM H50
# Procedure: Heparin accelerating effects on the kinetics of ZPI–FXa reactions were evaluated as a function of heparin concentration under pseudo–first-order conditions (i.e., with a large molar excess of inhibitor over protease) by incubating reaction mixtures of 100 μl containing 70 nM ZPI and ∼0.5 nM FXa in the absence or presence of varying levels of H50 ranging from 10^−9 to 10^−4 M in 20 mM Tris buffer (pH 7.4), 0.1 M NaCl, 0.1% PEG 8000, 0.1 mg/ml BSA, and 2.5 mM CaCl2 at 25 °C for reaction times of 2 to 5 min. Reactions were quenched by adding 1 ml of 50 μM Pefafluor FXa substrate (Centerchem, Inc) containing 50 μg/ml polybrene and 5 mM EDTA. The initial linear rate of substrate hydrolysis was monitored at an excitation wavelength of 380 nm and an emission wavelength of 440 nm. The observed pseudo–first-order rate constant for reactions (kobs) was calculated from the equation, kobs=In([vo-v∞]/[vt-v∞])/t
# where vt and v∞ are the initial velocities of protease hydrolysis of the substrate after reaction with ZPI for the fixed reaction time and after reaching the reaction end point, respectively, vo is the velocity measured in control reactions without ZPI, and t is the fixed reaction time. The dependence of kobs on heparin concentration was computer fit by nonlinear least squares analysis by the ternary complex bridging model equation ([10]).
# as §1, §2
# as §3, with “Simulations verified the validity of this correction for small extents of dissociation. Reported SIs are average values of at least two independent measurements at different reaction times.” left out
SI [moles ZPI/mole FXa],"ka,app × SI","ka,app × SI relative to WT",Molecule
4.9 ± 0.2,5.6 ± 0.8 × 10^5 M^−1 s^−1,(0.47),B1
2.9 ± 0.4,4.9 ± 0.7 × 10^4 M^−1 s^−1,(0.04),B2
4.0 ± 0.2,2.6 ± 0.3 × 10^4 M^−1 s^−1,(0.02),B3
1.9 ± 0.1,3.7 ± 0.4 × 10^5 M^−1 s^−1,(0.31),B4
7.8 ± 2.0,6.6 ± 2.7 × 10^4 M^−1 s^−1,(0.06),B5
2.4 ± 0.1,9.2 ± 0.9 × 10^5 M^−1 s^−1,(0.77),B6

# Same assay, conditions: 1 μM H50, 2.5 mM CaCl2, pH 7.4, 25 °C
row,"ka,app",Molecule
1,1.2 ± 0.1 × 10^5 M^−1 s^−1,B1
2,1.7 ± 0.1 × 10^4 M^−1 s^−1,B2
3,6.4 ± 0.5 × 10^3 M^−1 s^−1,B3
4,2.0 ± 0.1 × 10^5 M^−1 s^−1,B4
5,8.5 ± 1.3 × 10^3 M^−1 s^−1,B5
6,3.9 ± 0.2 × 10^5 M^−1 s^−1,B6

# Same assay, conditions: ratio of heparin-accelerated to unaccelerated ka,app × SI
row,H50 rate enhancement [fold],Molecule
1,~89,B1
2,6.5,B2
3,59,B4
4,7.0,B5
